Test results reported in paper PMC10235969 (Proceedings of the National Academy of Sciences of the …, 2023).

T1: Drosophila melanogaster RMC1 (Drosophila melanogaster, UniProt Q9VRX1 1-642)
T1 sequence: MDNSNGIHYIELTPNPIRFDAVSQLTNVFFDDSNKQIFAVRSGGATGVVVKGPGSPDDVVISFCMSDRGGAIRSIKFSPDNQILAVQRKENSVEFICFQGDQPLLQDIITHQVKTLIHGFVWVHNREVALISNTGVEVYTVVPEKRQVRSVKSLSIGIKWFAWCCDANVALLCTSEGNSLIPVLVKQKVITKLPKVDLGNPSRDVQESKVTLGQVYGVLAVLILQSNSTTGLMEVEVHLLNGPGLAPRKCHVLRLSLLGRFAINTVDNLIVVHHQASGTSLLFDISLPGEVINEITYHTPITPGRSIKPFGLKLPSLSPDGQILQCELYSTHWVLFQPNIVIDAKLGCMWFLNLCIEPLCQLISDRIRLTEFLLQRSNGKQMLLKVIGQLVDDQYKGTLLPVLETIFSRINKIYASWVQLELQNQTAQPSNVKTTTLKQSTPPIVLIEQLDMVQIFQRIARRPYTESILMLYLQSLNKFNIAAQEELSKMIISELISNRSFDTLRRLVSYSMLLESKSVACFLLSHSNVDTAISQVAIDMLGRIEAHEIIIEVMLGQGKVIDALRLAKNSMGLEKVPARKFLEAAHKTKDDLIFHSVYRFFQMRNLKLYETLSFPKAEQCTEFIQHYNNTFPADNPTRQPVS

B1: Drosophila melanogaster Ccz1 (natural protein)
chain: MAKLLQRVEITLRSFYIFNSTFGQVEGEEHKKVLFYHPNDIELNTKIKDVGLSEAIIRFTGTFTSEDDCQALHTQKTTQLFYQPEPGYWLVLVLNVPKEVRLKEGVEVADYRGAEISDRIYRAILRQCYQMFRFQNGCFSSCGSEEPNPDKRRELLCQKLLQFYDQHLTNLRDPAQCDIIDMLHSIQYLPLDKTLFLRAQNFGTLCETFPDIKESIMLYQEQVLCGGKLSPEDLHCVHSYVVQHVLKVEASSSTIAVSPSLKRSISECQVGGFVRSRQKVAGDEHDAVNEEDHPMKVYVTLDKEAKPYYLLIYRALHITLCLFLNADQVAPKQDLYDDLHAYMAPQLTSLARDISSELTKEAVGAAGQDNSSGNSETAPKYLFINEQSLQHHTNFQRHLPQGLPRNVLSIIADLANGSGKAEMESAPAEEVQVKTTNDYWIVKRRCNYRQYYVILCNSKATLLDVTQEARRIFEQELTDDVFFDK
B2: Drosophila melanogaster Mon1 (natural protein)
chain: MEVEQTSVRSDTNSTCEYLDAEGDPESPNLYQEADPDQEAEQQNHSIISELRDGLGTMRDNSALSPEPGQENKGLAASVESLALSTSTSAKTEDSIGGGLEEEYDYQHDSLWQGQKKHIFILSEAGKPIFSLHGNEDKLATLFGVIQALVSFVQMGQDAITSIHAGGIKFAFMQRSSLILVAASRSNMSVQQLQLQLGDVYNQILSILTYSHMTKIFERRKNFDLRRLLSGSERLFYNLLANDSSSAKVSNNIFTFLTNSIRVFPLPTTIRSQITSAIQSNCSKIKNLVFAVLIANNKLIALVRMKKYSIHPADLRLIFNLVECSESFKSSENWSPICLPKFDMNGYLHAHVSYLADDCQACLLLLSVDRDAFFTLAEAKAKITEKLRKSHCLEAINEELQQPFNAKLYQQVVGIPELRHFLYKPKSTAQLLCPMLRHPYKSLTELERLEAIYCDLLHRIHNSSRPLKLIYEMKEREVVLAWATGTYELYAIFEPVVDKATVIKYVDKLIKWIEKEYDVYFIRNHATF

What was measured:
[1] = molecular target: B2; assay: cryo-EM structure
[2] = molecular target: T1, Drosophila melanogaster RMC1; assay: cryo-EM structure

binding result [1]	binding result [2]	Binder
binds	binds	B1
–	binds	B2
